Substitutions are numbered along the chain they refer to. Names and notes keep the numbering of the source. Read-outs that look alike come from different tables or passages of the source. Values belong to the binder of their own block, whether it stands above or below them.
Columns and labels:
A*02:07 [1] = test: SPR; low fitting confidence
A*02:02 [2] = test: SPR; low fitting confidence
A*02:05 [3] = test: SPR; low fitting confidence
A*02:03 [4] = test: SPR; low fitting confidence
A*02:06 [5] = test: SPR
A*02:11 [6] = test: SPR
A*02:11 [7] = test: SPR; low fitting confidence
A*02:05 [8] = test: SPR
AFP158 loaded T2 cells [9] = molecular target: T1, AFP158 loaded T2 cells (human;, UniProt P61769 21-119); test: flow cytometry
[10] = molecular target: AFP158/HLA-A*02:01 complex; test: SPR
A*02:07 [11] = test: SPR; head prints KD(1/s)
A*02:06 [12] = test: SPR; head prints KD(1/s)
A*02:02 [13] = test: SPR; head prints KD(1/s)
A*02:05 [14] = test: SPR; head prints KD(1/s)
A*02:03 [15] = test: SPR; head prints KD(1/s)
A*02:11 [16] = test: SPR; head prints KD(1/s)
AFP158 loaded T2 cells [17] = molecular target: T1, AFP158 loaded T2 cells; test: flow cytometry; remark: listed apart in the source
[18] = molecular target: AFP158/HLA-A*02:01 complex; test: SPR; head prints KD(1/s)
[19] = molecular target: AFP158/HLA-A*02:01 complex; test: SPR; remark: listed apart in the source
A*02:02 [20] = test: SPR; low fitting confidence; remark: listed apart in the source
A*02:05 [21] = test: SPR; low fitting confidence; remark: listed apart in the source
A*02:03 [22] = test: SPR; low fitting confidence; remark: listed apart in the source
A*02:07 [23] = test: SPR
A*02:06 [24] = test: SPR; remark: listed apart in the source
A*02:11 [25] = test: SPR; remark: listed apart in the source
A*02:07 [26] = test: SPR; low fitting confidence; remark: listed apart in the source
A*02:11 [27] = test: SPR; low fitting confidence; remark: listed apart in the source
A*02:03 [28] = test: SPR
A*02:05 [29] = test: SPR; remark: listed apart in the source
A*02:02 [30] = test: SPR
A*02:03 [31] = test: SPR; remark: listed apart in the source

B1: AS179723 VL1g1VH1g1-N73Y (Fc fusion)
chain: QSVLTQPPSASGTPGQRVTISCSGSSNNIGGNYVNWYQQLPGTAPKLLIYDNKNRPSGVPDRFSGSKSGTSASLAISGLQSEDEADYYCASWDDSLSAVVFGGGTKLTVLGGGGSGGGGSGGGGSEVQLVESGGGLVQPGGSLRLSCAASGFTFLNYAMSWVRQAPGKGLEWVSSNSGAGSTYYADSVKGRFTISRDYSKNTLYLQMNSLRAEDTAVYYCAKGTNVGSWSSLHYWGQGTLVTVSS
- Kd (A*02:07 [1]): > 1700 nM
- Kd (A*02:02 [2]): > 77000 nM
- Kd (A*02:05 [3]): > 17000 nM
- Kd (A*02:03 [4]): > 6100 nM
- Kd (A*02:06 [5]): 220 nM
- Kd (A*02:11 [6]): 700 nM

B3: AS170036 VL1VH1 scFv-mIgG2aFc (Fc fusion)
chain: QSALTQPRSVSGSPGQSVTISCAGTSSDVGSENYVSWYQQHPGKAPKLMIYQVNKRASGVPDRFSGSKSGNTASLTISGLQAEDEADYYCASYRSSDHNIVFGGGTKLTVLGGGGSGGGGSGGGGSEVQLVESGGGLVQPGGSLRLSCAASGFTFSSYAMSWVRQAPGKGLEWVSTINSGTGSPYYADSVKGRFTISRDNSKNTLYLQMNSLRAEDTAVYYCAKNFFDGSWFLGPPAMDYWGQGTLVTVSS
- EC50 (AFP158 loaded T2 cells [9]): 8.79 nM
- Kd [10]: 256 nM

B4: AS170036 VL1VH1 (Fc fusion)
chain: B3 chain
- Kd (A*02:07 [1]): > 1200 nM
- Kd (A*02:02 [2]): > 71000 nM
- Kd (A*02:11 [7]): > 14000 nM
- Kd (A*02:06 [5]): 2770 nM

B7: AS170036 VL1VH1-56Y98Q108S (scFv)
scFv: QSALTQPRSVSGSPGQSVTISCAGTSSDVGSENYVSWYQQHPGKAPKLMIYQVNKRASGVPDRFSGSKSGNTASLTISGLQAEDEADYYCASYRSSDQNIVFGGGTKLTVLGGGGSGGGGSGGGGSEVQLVESGGGLVQPGGSLRLSCAASGFTFSSYAMSWVRQAPGKGLEWVSTINSGTYSPYYADSVKGRFTISRDNSKNTLYLQMNSLRAEDTAVYYCAKNFFDGSWFLSPPAMDYWGQGTLVTVSSHHHHHH
- Kd [19]: 7 nM
- Kd (A*02:02 [20]): > 3100 nM
- Kd (A*02:05 [21]): > 1400 nM
- Kd (A*02:03 [22]): < 18 nM
- Kd (A*02:07 [23]): 1500 nM
- Kd (A*02:06 [24]): 89 nM
- Kd (A*02:11 [25]): 290 nM

B8: AS170036 VL1VH1-56N108A (scFv)
scFv: B7 scFv with Q98H, Y182N, S234A
- Kd [19]: 27 nM
- Kd (A*02:07 [26]): > 9100 nM
- Kd (A*02:02 [20]): > 3700 nM
- Kd (A*02:05 [21]): > 2000 nM
- Kd (A*02:11 [27]): > 500 nM
- Kd (A*02:06 [24]): 320 nM
- Kd (A*02:03 [28]): 6700 nM

B9: AS170036 VL1VH1-56N98I (scFv)
scFv: B7 scFv with Q98I, Y182N, S234G
- Kd [19]: 41 nM
- Kd (A*02:07 [26]): > 17000 nM
- Kd (A*02:02 [20]): > 3200 nM
- Kd (A*02:11 [27]): > 500 nM
- Kd (A*02:06 [24]): 570 nM
- Kd (A*02:05 [29]): 2100 nM
- Kd (A*02:03 [28]): 2700 nM

B10: AS170036 VL1VH1-56Y98I108S (scFv)
scFv: B7 scFv with Q98I
- Kd [19]: 2.4 nM
- Kd (A*02:02 [20]): > 4500 nM
- Kd (A*02:07 [23]): 1000 nM
- Kd (A*02:06 [24]): 69 nM
- Kd (A*02:05 [29]): 2400 nM
- Kd (A*02:03 [28]): 950 nM
- Kd (A*02:11 [25]): 160 nM

B11: AS170036 VL1VH1-57K108S (scFv)
scFv: B7 scFv with Q98H, Y182G, S183K
- Kd [19]: 35 nM
- Kd (A*02:02 [20]): > 1400 nM
- Kd (A*02:03 [22]): < 10 nM
- Kd (A*02:07 [23]): 10000 nM
- Kd (A*02:06 [24]): 500 nM
- Kd (A*02:11 [25]): 370 nM

B14: AS179732 (Fc fusion)
chain: NFMLTQPPSMSGSPRQSVTISCTGSSSNIGGNYVNWYQHLPGTAPKLLIYDNSNRASGVPERFSGSKSGSSASLTITGLQAEDEGDYYCASWDDSLSGAVFGGGTHLTVLGGGGSGGGGSGGGGSEVQLVESGGGLVQPGGSLRLSCAASGFTFLNYAMSWVRQAPGKGLEWVSSNSGAGSTYYSDSVKGRFTISRDYAKNVVYLQLNSLKTEDTGMYYCAKGTNVGSWSSLHYWGQGTQVTVSS
- Kd (A*02:07 [1]): > 770 nM
- Kd (A*02:06 [5]): 191 nM
- Kd (A*02:02 [30]): 19000 nM
- Kd (A*02:05 [8]): 26200 nM
- Kd (A*02:03 [31]): 2140 nM
- Kd (A*02:11 [6]): 656 nM

Results, then the binder that gave them:

- Kd (A*02:07 [1]): > 2400 nM
- Kd (A*02:02 [2]): > 29000 nM
- Kd (A*02:03 [4]): > 11000 nM
- Kd (A*02:11 [7]): > 1000 nM
- Kd (A*02:06 [5]): 220 nM
- Kd (A*02:05 [8]): 17000 nM
B2: AS179732 VL1g1VH1g1-N73Y (Fc fusion)
chain: B1 chain with N27S, K53S, P56A, A98G, V99A

- Kd (A*02:07 [11]): 2500 nM
- Kd (A*02:06 [12]): 520 nM
- Kd (A*02:02 [13]): 660 nM
- Kd (A*02:05 [14]): 3800 nM
- Kd (A*02:03 [15]): 35000 nM
- Kd (A*02:11 [16]): 4500 nM
B5: AS190259 (Fc fusion)
chain: QSVVTQPSAVSVSLEETATITCQGGGYYVNWYQQKPGQAPVLVIYLNTNRPSGIPERFSASKSGGTATLTINGAQAEDEAAYYCQSADSSGNSAVFGGGTHLTVLGGGGSGGGGSGGGGSQVQLVQSGGGLVQPGGSLRLSCAASGFTFSSYAMSWVRQAPGKGLEWVSAINSGGGSTYYADSVKGRFTISRDNAKNTLYLQLNSLKTEDTAMYYCAKAASGYGGSWWGDATLDAWGQGTLVTVSS

- EC50 (AFP158 loaded T2 cells [17]): 3.76 nM
- Kd [18]: 100 nM
B6: AS190259 scFv-mIgG2aFc (Fc fusion)
chain: B5 chain

- Kd (A*02:07 [11]): 3500 nM
- Kd (A*02:06 [12]): 800 nM
- Kd (A*02:02 [13]): 970 nM
- Kd (A*02:05 [14]): 7000 nM
- Kd (A*02:03 [15]): 48000 nM
- Kd (A*02:11 [16]): 6700 nM
B12: AS190259 VL1VH1 (Fc fusion)
chain: SSELTQDPAVSVALGQTVRITCQGGGYYVNWYQQKPGQAPVLVIYLNTNRPSGIPDRFSGSSSGNTASLTITGAQAEDEADYYCQSADSSGNSAVFGGGTKLTVLGGGGSGGGGSGGGGSEVQLVESGGGLVQPGGSLRLSCAASGFTFSSYAMSWVRQAPGKGLEWVSAINSGGGSTYYADSVKGRFTISRDNSKNTLYLQMNSLRAEDTAVYYCAKAASGYGGSWWGDATLDAWGQGTLVTVSS

- EC50 (AFP158 loaded T2 cells [9]): 3.56 nM
- Kd [18]: 130 nM
B13: AS190259 VL1VH1 scFv-mIgG2aFc (Fc fusion)
chain: B12 chain

From patent US20240279318A1 (published 2024)
